Source: publication PMC10864208 (2024)
Values joined by “and” are separate entries in the source; they are usually repeats but may differ in a detail not shown here. Identical values can stand only once. Non-standard residues stand in square brackets, D forms with d. *: point of attachment. FITC = O=C1OC2(c3ccc(O)cc3Oc3cc(O)ccc32)c2ccc(NC(=S)*)cc21; pS = N[C@@H](COP(=O)(O)O)C(=O)O

T1: MDM2 179-193 (Homo sapiens, UniProt Q00987)
T1 chain: {FITC}-RQRKRHK[pS]DSISLSF-NH2

T2: MDM2 159-173 (Homo sapiens, UniProt Q00987)
T2 chain: {FITC}-SSRRRAI[pS]ETEENSD-NH2

T3: MDM2 179-193 (Homo sapiens, UniProt Q00987)
T3 chain: {FITC}-RQRKRHK[pS]DSISLSF-NH2


Assays:
Experiment in all cases: FP
MDM2 179-193 [1] = target: T1, MDM2 179-193
MDM2 159-173 = target: T2, MDM2 159-173
MDM2 179-193 [2] = target: T3, MDM2 179-193
MDM2 159-193 = MDM2 159-193 (Homo sapiens, UniProt Q00987, pS186, N-terminal FITC)
MDM2 159-193, sequence (Q00987 159-193): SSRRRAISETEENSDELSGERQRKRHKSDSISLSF

Row | Kd (MDM2 179-193 [1]) | Kd (MDM2 159-173) | Kd (MDM2 179-193 [2]) | Kd (MDM2 159-193) | Binder
1 | 24.6 µM and ~26.2 µM | > 115 µM | 10.8 µM | > 124 µM | 14-3-3σ (protein) MERASLIQKAKLAEQAERYEDMAAFMKGAVEKGEELSCEERNLLSVAYKNVVGGQRAAWRVLSSIEQKSNEEGSEEKGPEVREYREKVETELQGVCDTVLGLLDSHLIKEAGDAESRVFYLKMKGDYYRYLAEVATGDDKKRIIDSARSAYQEAMDISKKEMPPTNPIRLGLALNFSVFHYEIANSPEEAISLAKTTFDEAMADLHTLSEDSYKDSTLIMQLLRDNLTLWTADNAGEEGGEAPQEPQS
2 | 11.4 µM | – | – | – | 14-3-3ζ (protein) MDKNELVQKAKLAEQAERYDDMAACMKSVTEQGAELSNEERNLLSVAYKNVVGARRSSWRVVSSIEQKTEGAEKKQQMAREYREKIETELRDICNDVLSLLEKFLIPNASQAESKVFYLKMKGDYYRYLAEVAAGDDKKGIVDQSQQAYQEAFEISKKEMQPTHPIRLGLALNFSVFYYEILNSPEKACSLAKTAFDEAIAELDTLSEESYKDSTLIMQLLRDNLTLWTSDTQGDEAEAGEGGEN
